Data as given in paper PMC7156388.

Key:
[1] = test system: His228 (position 228, SCDKTHTCPPC)
[2] = test system: His272 (position 272, VVDVSHEDPEV)
[3] = test system: His289 (position 289, DGVEVHNAKTK)
[4] = test system: His57 (position 57, TWNSGHIDYAD)

## Adalimumab (therapeutic monoclonal IgG1 kappa antibody, anti-TNF) (Homo sapiens (recombinant fully human antibody))
[1]
  pKa: 6.4
[2]
  pKa: 7.0
[3]
  pKa: 6.2
[4]
  pKa: 6.9
